Test in all cases: cell-based or functional assay
In assay [1] the target is endogenous wild-type PLB of adult rabbit myocytes (rabbit) (UniProt P61015).
The target in assay [2] is endogenous wild-type PLB of cardiac myocytes or SR (species not stated at these places) (Rattus norvegicus (Rat)) (UniProt P61016).
For assay [3], the target named is endogenous wild-type PLB of rat cardiac myocytes (rat) (UniProt P61016).

The results in this text go back to patent publication EP1728516A1.

UniProt P61015, sequence (P61015 whole entry): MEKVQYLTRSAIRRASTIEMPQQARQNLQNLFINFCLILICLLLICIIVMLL

On to PLB double point mutant K3E/R14E, for which, in assay [1], the decrease in RT50 against the LacZ control turned out to be 25%, the increase in +dL/dt against the LacZ control came out at 115% and the increase of fractional shortening against the LacZ control turned out to be 74%. Also, in assay [2], the decrease in RT50 after plasmid transfection of myocytes is 43%; the half-time for decay (RT50) of the indo 1 Ca2+ transient, neonatal myocytes (LacZ: 0.28 seconds) was 0.2 s; the half-time for decay (RT50) of the indo 1 Ca2+ transient, percent of LacZ was 73%. The substance also gave a lowering of the EC50 of SR Ca2+ uptake, adult rat myocytes in assay [3] of 36%.
